Tests used:
[1] = target: murine serum albumin (murine) (UniProt P07724); assay: SPR; Biacore T200, as described by Yin and co-authors (ref. 40); DOTA conjugates without radionuclide
[2] = target: human serum albumin (human) (UniProt P02768); assay: as above
[3] = target: human epidermal growth factor receptor type 2 (HER2) (human (endogenous in SKOV-3 and BT-474)) (UniProt P04626); assay: radioligand binding; LigandTracer Yellow on living SKOV-3 cells, 3 and 9 nM (1, 3 and 9 nM for [177Lu]Lu-G3), room temperature, with 100 nM human serum albumin; InteractionMap analysis, 1:2 model; apparent

Chain of UniProt P02768 (P02768 25-609): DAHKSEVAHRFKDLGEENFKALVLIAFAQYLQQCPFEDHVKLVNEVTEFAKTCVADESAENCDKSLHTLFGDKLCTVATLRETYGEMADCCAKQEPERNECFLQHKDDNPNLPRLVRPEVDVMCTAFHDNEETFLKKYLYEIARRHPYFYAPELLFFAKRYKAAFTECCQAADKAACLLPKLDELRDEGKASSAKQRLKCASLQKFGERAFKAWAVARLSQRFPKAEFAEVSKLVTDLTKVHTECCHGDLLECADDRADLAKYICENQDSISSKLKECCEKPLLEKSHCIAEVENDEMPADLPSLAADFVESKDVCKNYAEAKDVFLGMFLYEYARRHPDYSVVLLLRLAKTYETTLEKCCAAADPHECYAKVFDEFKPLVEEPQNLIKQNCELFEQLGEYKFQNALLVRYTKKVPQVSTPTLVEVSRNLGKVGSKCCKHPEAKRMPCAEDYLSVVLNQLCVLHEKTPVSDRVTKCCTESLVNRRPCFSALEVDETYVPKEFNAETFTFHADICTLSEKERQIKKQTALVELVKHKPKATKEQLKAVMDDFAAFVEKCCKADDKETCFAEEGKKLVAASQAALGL
Chain of UniProt P07724 (P07724 25-608): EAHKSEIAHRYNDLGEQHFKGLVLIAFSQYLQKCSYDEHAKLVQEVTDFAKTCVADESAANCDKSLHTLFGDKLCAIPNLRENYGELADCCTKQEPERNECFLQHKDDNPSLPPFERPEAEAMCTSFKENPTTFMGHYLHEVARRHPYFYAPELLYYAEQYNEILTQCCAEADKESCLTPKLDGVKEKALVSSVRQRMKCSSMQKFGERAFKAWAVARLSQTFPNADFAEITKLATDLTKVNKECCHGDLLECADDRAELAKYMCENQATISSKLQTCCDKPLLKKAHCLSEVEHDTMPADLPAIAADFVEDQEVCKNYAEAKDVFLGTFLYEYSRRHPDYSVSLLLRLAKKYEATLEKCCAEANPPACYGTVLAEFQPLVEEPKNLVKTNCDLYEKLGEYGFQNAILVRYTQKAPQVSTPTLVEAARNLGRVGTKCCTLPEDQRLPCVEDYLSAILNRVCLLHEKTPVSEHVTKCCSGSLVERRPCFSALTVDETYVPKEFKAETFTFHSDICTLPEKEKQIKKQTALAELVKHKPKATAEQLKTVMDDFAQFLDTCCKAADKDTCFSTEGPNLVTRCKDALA

Kd [1] [µM]	koff [1] [s⁻¹]	kon [1] [M⁻¹ s⁻¹]	Kd [2] [µM]	koff [2] [s⁻¹]	kon [2] [M⁻¹ s⁻¹]	KD1 (first interaction, 1:2 model) [3] [pM]	KD2 (second interaction, 1:2 model) [3] [nM]	Substance
0.00846	0.00518	61300	0.00182	0.000238	131000	901	24	G3-ABD-DOTA (designed binder)
0.0813	0.00191	23500	0.0354	0.000302	8530	1290	67	ABD-G3-DOTA (designed binder)
–	–	–	–	–	–	–	34	non-ABD-fused DARPin G3 (control protein) (designed binder)
